# Measured values: article PMC2952493 (Biochemistry, 2010)
# B1: recombinant His-tagged TRUSS_(1-797) (natural protein, UniProt Q9JLV2 1-797, looked up)
# chain: MAAAPAAAGAGASRGRRLAATAAAWGGWGGRPRPGNILLQLRQGQLTGRGLVRAVQFTETFLTERDKLSKWSGIPQLLLKLYATSHLHSDFVECQSILKEISPLLSMEAMAFVTEDRKFTQEATYPNTYIFDLFGGVDLLVEILMRPTISIRGQKLKISDEMSKDCLSILYNTCVCTEGVTKRLAEKNDFVIFLFTLMTSKKTFLQTATLIEDILGVKKEMIRLDEVPNLSSLVSNFDQQQLANFCRILAVTISEMDTGNDDKHTLLAKNAQQKKSLSLGPSAAEINQAALLSIPGFVERLCKLATRKVSESTGTASFLQELEEWYTWLDNALVLDALMRVANEESEHNQAPTVFPSLGTSEEGGLPHTSARAQLPQSMKIMHEIMYKLEVLYVLCVLLMGRQRNQVHRMIAEFKLIPGLNNLFDKLIWRKHSASALVLHGHNQNCDCSPDITLKIQFLRLLQSFSDHHENKYLLLNNQELNELSAISLKANIPEVEAVLNTDRSLVCDGKRGLLTRLLQVMKKEPAESSFRFWQARAVESFLRGTTSYADQMFLLKRGLLEHILYCIVDSECKSRDVLQSYFDLLGELMKFNVDAFKRFNKYINTDAKFQVFLKQINSSLVDSNMLVRCVTLSLDRFENQVDMKVAEVLSECRLLAYISQVPTQMSFLFRLINIIHVQTLTQENVSCLNTSLVILMLARRKERLPLYLRLLQRMEHSKKYPGFLLNNFHNLLRFWQQHYLHKDKDSTCLENSSCISFSYWKETVSILLNPDRQSPSALVSYIEEPYMDIDRDFTEE
# Target: the molecule itself
# Test: SEC
protein,measurement,value
B1,stoichiometry N,3
